Experimental data from patent US20190194249A1 (NATIONAL INSTITUTE OF ADVANCED INDUSTRIAL SCIENCE AND …, published 2019).

Target: T1, pH 2.0-treated Fc (Fc region of human monoclonal IgG, acid-treated and neutralised) (human)
T1 construct: Dialysed at pH 2.0 for 12 h, then neutralised; also called acid-treated Fc region
Test: SPR (Biacore T100), AF.ab9 immobilised on CM5, Fc region as analyte

B1: Polypeptide AF.ab9 (SEQ ID NO: 8) (peptide)
peptide: PNSGGGGSYDPETGTWPQEIRLILNW
notes: Chemically synthesised; 8-residue linker + 8-residue chignolin + 10-residue selected region
- binding response relative to that on the acid-treated (non-native) Fab region: ≤ 0.01 fold
